In one series the target is CD36 (Homo sapiens, UniProt P16671). The series is described as follows: Surface plasmon resonance (Biacore T200) affinity for human CD36. It counts as binding. The following applies: SPR. The protocol: The affinity of ONA-0-v1, 1G04, and a commercial anti-CD36 antibody (JC63.1) for human CD36 was also measured by surface plasmon resonance (SPR) using a Biacore T200. 1G04 was analysed using a protein A capture surface, with a capture range of 100-150 RU and an antigen titration range of 3.3-333 nM. The mouse antibodies ONA-0-V1 and the commercial anti-CD36 antibody were analysed using an anti-mouse IgA capture surface, with a capture range of 160-180 RU and an antigen titration range of 3.3-333 nM. For each single analysis cycle a titration of five antigen concentrations were injected over the captured antibody and then the dissociation of the complex was measured. A double referencing method was employed in which data from the reference surfaces where no antibody was captured (fc 1 and 3 respectively) were subtracted from the antibody bound capture surface (fc 2 and 4). Blank injections of buffer were run for every antigen titration cycle and then subtracted from analyte injection cycles, to correct for small changes in the antibody capture surface density. All analysis was performed at 25° C., and the sample rack was kept at 6° C. during experimental runs. Each experiment was run at least three times with the mean binding constants generated from at least two independent assays reported. All analysis was performed in PBS-T running buffer at 40 μL/min.
Sequence of CD36 (P16671 whole entry): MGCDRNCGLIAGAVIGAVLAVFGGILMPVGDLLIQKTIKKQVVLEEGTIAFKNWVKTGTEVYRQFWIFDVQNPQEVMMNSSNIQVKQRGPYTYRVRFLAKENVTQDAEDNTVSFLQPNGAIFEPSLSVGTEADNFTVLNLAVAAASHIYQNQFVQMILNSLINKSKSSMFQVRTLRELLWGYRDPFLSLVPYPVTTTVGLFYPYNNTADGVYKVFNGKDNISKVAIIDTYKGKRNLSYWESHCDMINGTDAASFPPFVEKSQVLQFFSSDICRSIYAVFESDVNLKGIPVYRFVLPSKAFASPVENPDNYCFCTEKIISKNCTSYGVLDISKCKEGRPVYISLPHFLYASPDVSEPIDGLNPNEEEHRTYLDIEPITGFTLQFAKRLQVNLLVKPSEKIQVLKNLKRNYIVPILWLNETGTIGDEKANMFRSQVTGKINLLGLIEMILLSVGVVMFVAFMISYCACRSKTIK

The test system of the next series is FaDu cells. The series can be described thus: FaDu orthotopic mouse model of oral cancer metastasis. It counts as in vivo. The procedure:
NOD scid gamma (NSG) (NOD.Cg-Prkdc^scidII2rg^tm1Wj1/SzJ) mice were purchased from Charles River and crossed in-house. All mice were housed under a regimen of 12h light/12h dark cycles and SPF conditions, and all procedures were evaluated and approved by the CEEA (Ethical Committee for Animal Experimentation) from the Government of Catalunya. SCC intra-tongue injection was performed as previously described (Oskarsson et al., 2014; Nieman et al., 2011). Briefly, mice were anesthetized by intraperitoneal injection with a mixture of 50 mg per kg of ketamine and 0.5 mg per kg of medetomidin, and SCC cells resuspended in 30 μl PBS were injected into each mouse tongue with a BD ultra-fine 6 mm needle. Mice were monitored for the luciferase bioluminescent signal immediately after injection (TO) and once weekly thereafter with a Xenogen IVIS Imaging System-100 (Caliper Life Sciences). Briefly, animals were injected by retro-orbital injection with 50 μl of D-luciferin (Promega) diluted in 1×PBS at 5 mg ml^−1. Continuous administration of isofluorane gas was provided to ensure anesthetizing animals during imaging. Data was quantified with the Living Image software version 4.4 (Caliper Life Sciences). Quantifications were calculated with unsaturated pixels. Color scale minimum and maximum values are shown in pictures.
Studies on the combination of the effects of the ONA-0-v1 anti-CD36 antibody, both with and without cisplatin, were performed in NSG mice (immuno-deficient). The studies included both male and female mice. All mice were inoculated with commercially available FaDu (ATCC) cancer cells, transduced with a retroviral vector expressing luciferase and the green fluorescent protein (Luc-GFP). FaDu cells were derived from a squamous cell carcinoma (i.e., from an oral cancer). Prior to inoculation, the FaDu cells were cultured in a humidified incubator at 37° C. with 5% CO2, and were grown in EMEM (LONZA) supplemented with 5 μg ml^−1 penicillin/streptomycin and 10% FBS (GIBCO).
For each mouse, 100,000 FaDu cells were inoculated via orthotopic injection.
Treatment of the inoculated mice began nine days after inoculation with the cancer cells. Inoculated mice were divided into four distinct treatment groups.
Antibody treatments were administered via intraperitoneal (i.p.) injection daily at a dose of 1 mg/kg. Cisplatin was administered twice weekly at a dose of 2 mg/kg (Groups 2 and 4). […] During the course of treatment, mice were observed once weekly using an in vivo imaging system (IVIS). Further, mouse body weight was measured twice weekly to update appropriate dosage amounts. At the end of the treatment period, the mice were sacrificed, and organs and tissues were collected for performance of immunohistochemistry analysis.

A further series has as its target T1, mouse CD36 (Mus musculus, UniProt Q08857).
T1 construct: purchased Sino Biological 50422-M08H
The series is described as follows: ELISA binding to plate-coated mouse CD36. The following applies: recombinant mouse CD36 coated plates. The procedure: To perform ELISA assays, 96-well ELISA plates were coated over night with human CD36 (Sino Biological, reference 10752-H08H) or mouse CD36 (Sino Biological, reference 50422-M08H) recombinant proteins at a concentration of 0.25 mg/ml. After two washes with PBS, plates were blocked with 4% skimmed milk in PBS for 1 hour at 37° C. Blocking solution was discarded and plates were washed five times with 200 μl/well PBS-Tween20 (0.5%). Primary antibodies were either omitted (control blocking solution treatment) or mixed in blocking solution at several dilutions ranging from 0.01 nM to 0.5 μM. The primary antibody solutions were added to the wells and incubated over night at 4° C. After 5 washes with 200 ul/well of PBS-Tween20 (0.5%), plates were incubated for 1 hour at room temperature with a goat anti-mouse HRP-conjugated antibody (Abeam, reference ab97235) diluted 1:2000 in blocking solution. Plates were then washed 5 times with 200 μl/well of PBS-Tween20 (0.5%), incubated with 100 μl/well TMB and detected after 10 minutes, 30 minutes, or 60 minutes with a spectrophotometer at a wave length of 630 nm.

[1] abbreviates: antibody alone 1 mg/kg i.p. daily.
The mark [2] stands for this setting: antibody in combination with cisplatin.

Like-named read-outs stand apart in the source and are kept apart here.

T1 sequence (Q08857 30-439 limits assumed): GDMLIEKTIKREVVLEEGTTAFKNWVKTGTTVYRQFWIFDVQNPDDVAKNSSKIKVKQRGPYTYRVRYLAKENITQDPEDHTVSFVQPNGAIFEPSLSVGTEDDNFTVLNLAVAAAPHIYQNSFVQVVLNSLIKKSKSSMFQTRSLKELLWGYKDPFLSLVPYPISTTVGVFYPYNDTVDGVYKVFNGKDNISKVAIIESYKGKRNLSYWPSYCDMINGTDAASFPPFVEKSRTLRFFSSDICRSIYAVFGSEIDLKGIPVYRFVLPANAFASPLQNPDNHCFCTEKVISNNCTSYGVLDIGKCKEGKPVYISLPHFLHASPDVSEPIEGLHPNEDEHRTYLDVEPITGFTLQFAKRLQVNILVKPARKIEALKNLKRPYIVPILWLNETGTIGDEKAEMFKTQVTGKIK

B1: ONA-0-v1: murine IgA anti-CD36 antibody; heavy chain SEQ ID NO: 5, light chain SEQ ID NO: 7 (antibody)
heavy: QVQLKQSGADLVRPGASVKLSCKASGYTFTDYYINWVKQRPGQGLEWIARIYPGSGNTYYNEKFKGKATLTAEKSSSTAYMQLSSLTSEDSAVYFCARGIGGGFGMDYWGQGTSVTVSSESARNPTIYPLTLPPVLCSDPVIIGCLIHDYFPFGTMNVTWGKSGKDITTVNFPPALASGGRYTMSSQLTLPAVECPEGESVKCSVQHDSNPVQELDVNCSPTPPPPITIPSCQPSLSLQRPALEDLLLGSDASITCTLNGLRNPEGAAFTWEPSTGKDAVQKKAAQNSCGCYSVSSVLPGCAERWNSGASFKCTVTHPESGTLTGTIAKVTVNTFPPQVHLLPPPSEELALNELLSLTCLVRAFNPKEVLVRWLHGNEELSPESYLVFEPLKEPGEGATTYLVTSVLRVSAETWKQGDQYSCMVGHEALPMNFTQKTIDRLSGKPTNVSVSVIMSEGDGICY
light: SIVMTQTPKFLLVSAGDRITITCKASQSVSDDVAWYQQKPGQSPKLLIYYASNRYTGVPDRFTGSGYGTDFTFTISTVQAEDLAVYFCQQDYSSPLTFGAGTKLEIKRADAAPTVSIFPPSSEQLTSGGASVVCFLNNFYPKDINVKWKIDGSERQNGVLNSWTDQDSKDSTYSMSSTLTLTKDEYERHNSYTCEATHKTSTSPIVKSFNRNEC
modifications: ONA-0-v1 heavy chain; ONA-0-v1 light chain
In the series with CD36 (1-to-1 model, 25° C.), B1 returned a ka of 632000 M⁻¹ s⁻¹ and a kd of 0.00354 s⁻¹. In the series with CD36 (2-state model), this molecule registered a ka1 of 108000 M⁻¹ s⁻¹, a ka2 of 0.000558 s⁻¹, a kd1 of 0.0023 s⁻¹ and a kd2 of 0.000393 s⁻¹. In addition, in the series with CD36 (bivalent model), the ka2 is on record as 6.74E−05 1/RUs, the kd1 came to 0.00259 s⁻¹ and the kd2 came to 0.000527 s⁻¹. The ka1 with CD36 (bivalent model, first ka1 column) was determined as 33400 M⁻¹ s⁻¹. Besides, in the series with CD36 (bivalent model, read-out: KD1), the Kd worked out at 77.3 nM. In addition, the Kd with CD36 (bivalent model, read-out: KD2) was 986 nM. Moreover, the “tolerability over the course of treatment” value in the series with FaDu cells (NSG mice) is “well-tolerated”. Also, in the series with FaDu cells (antibody alone), the “effect on mouse body weight relative to isotype control” value is “did not have any effects” and the “effect on platelet count relative to isotype control” value is “did not have any effects”. In the series with FaDu cells (setting [1]), the “growth of lymph node metastases (IVIS relative intensity)” value was “able to inhibit growth” and the “inhibition of lymph node metastatic tumor growth relative to IgA isotype control (ratio of IVIS intensity end/start)” value is listed as “greater than 50%”. In addition, in the series with FaDu cells (setting [2]), the “effect on cisplatin-mediated weight loss and decrease in platelet count” value was “did not significantly enhance”; the “growth of lymph node metastases (IVIS relative intensity)” value is listed as “almost complete inhibition”. Also, the “mice in which metastasis into lymph nodes was prevented” value in the series on FaDu cells (antibody in combination with cisplatin, eight tested mice) is listed as “five of the eight”. Moreover, the “mice in which metastasis into lymph nodes was prevented” value in the series on FaDu cells (single agent, eight tested mice per group) is “one of the eight”. In the series with FaDu cells (single agent, antibody 1 mg/kg i.p. daily, cisplatin 2 mg/kg twice weekly), the “effect on primary tumor (IVIS imaging and H&E staining)” value is “did not have a statistically significant effect”. In addition, the “binding to mouse CD36 in ELISA” value with mouse CD36 was “able to specifically bind”.

For the origin of these results see patent publication US12643954B2, “Anti-CD36 antibodies and their use to treat cancer” (ONA Therapeutics, S.L., priority 2020, dated 2026).
